Columns and labels:
[1] = molecular target: human recombinant biotinylated FcRn (neonatal Fc receptor) (human) (UniProt P55899); test: SPR; ProteOn XPR36; biotinylated human FcRn immobilised on an NLC chip, IL-12Fc variants or control antibodies as analytes (0-6075 nM); histidine buffer (20 mM histidine, 150 mM NaCl, 0.05% Tween 20) pH 6.0; KD from binding equilibrium analysis; values of Figure 2B (for WT and NHQ those of the channel labelled 100-115 RU in the sheet of Figure S2C)
[2] = molecular target: human recombinant biotinylated FcRn (neonatal Fc receptor) (human) (UniProt P55899); test: SPR; as a1, channel L4, FcRn coating density labelled 75-80 RU; WT 365-4.5 nM, NHQ 3645-45 nM; pH 6.0; equilibrium analysis
[3] = molecular target: human recombinant biotinylated FcRn (neonatal Fc receptor) (human) (UniProt P55899); test: SPR; as a1, channel L5, FcRn coating density labelled 30-35 RU; WT 365-4.5 nM, NHQ 3645-45 nM; pH 6.0; equilibrium analysis
[4] = molecular target: human recombinant biotinylated FcRn (neonatal Fc receptor) (human) (UniProt P55899); test: SPR; as a1, channel L1, FcRn coating density labelled 550-600 RU; WT 365-4.5 nM, NHQ 3645-45 nM; pH 6.0; equilibrium analysis
[5] = molecular target: human recombinant biotinylated FcRn (neonatal Fc receptor) (human) (UniProt P55899); test: SPR; as a1, channel L2, FcRn coating density labelled 250-260 RU; WT 365-4.5 nM, NHQ 3645-45 nM; pH 6.0; equilibrium analysis
[6] = molecular target: human recombinant biotinylated FcRn (neonatal Fc receptor) (human) (UniProt P55899)

Control IgG1 (antibody)
Kd [1]: 218 nM

Control IgG4 (antibody)
Kd [1]: 343 nM

IL-12Fc WT (IHH) (Fc fusion)
Kd [2]: 186 nM
Kd [3]: 445 nM
Kd [4]: 216 nM
Kd [5]: 60.1 nM
Kd [1]: 101 nM

IL-12Fc WT S228P (Fc fusion)
Kd [1]: 182 nM

human IL-12Fc NHQ (I253N H435Q), FcRn-silenced IL-12Fc (Fc fusion)
IL-12 level in the ipsilateral brain hemisphere 6 h after CED of 1 ug into the striatum of hFcRn Tg32 mice, compared to the IAQ and AAA variants and WT IL-12Fc [6]: > 30%

human IL-12Fc WT (IHH), single-chain IL-12 fused to human IgG4 Fc (Fc fusion)
residual brain level of IL-12Fc WT 6 h after CED in hFcRn Tg32 mice given the FcRn inhibitor MST-HN Fc (100 ug i.v.) beforehand [6]: > 50%

Reference: paper PMC12098678
